Patent US20100092464A1 (Novartis, published 2010)
Residue numbers refer to the chain shown, from its start.

T1: human macrophage colony stimulating factor (M-CSF) (human, UniProt P09603 33-190, limits assumed)
T1 sequence: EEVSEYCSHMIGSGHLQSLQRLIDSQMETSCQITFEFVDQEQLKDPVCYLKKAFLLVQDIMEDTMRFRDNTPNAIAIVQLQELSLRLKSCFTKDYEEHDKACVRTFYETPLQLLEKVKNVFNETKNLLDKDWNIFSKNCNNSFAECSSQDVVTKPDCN

B1: M-CSF-specific murine monoclonal antibody RX1 (antibody, V domains shown)
VH: DVQLQESGPGLVKPSQSLSLTCTVTDYSITSDYAWNWIRQFPGNKLEWMGYISYSGSTSYNPSLKSRISITRDTSKNQFFLQLNSVTTEDTATYYCASFDYAHAMDYWGQGTSVTVSS
VL: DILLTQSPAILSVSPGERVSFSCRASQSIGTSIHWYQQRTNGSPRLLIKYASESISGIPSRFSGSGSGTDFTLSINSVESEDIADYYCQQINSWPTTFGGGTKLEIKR
notes: Hybridoma-derived and recombinant murine RX1 are written as one molecule; also called Murine RX1; rRX1(mouse)
B2: Human Engineered RX1 antibody heRX1-10.G2 (antibody, V domains shown)
VH: QVQLQESGPGLVKPSQTLSLTCTVSDYSITSDYAWNWIRQFPGKGLEWMGYISYSGSTSYNPSLKSRITISRDTSKNQFSLQLNSVTAADTAVYYCASFDYAHAMDYWGQGTTVTVSS
VL: DIVLTQSPAFLSVTPGEKVTFTCQASQSIGTSIHWYQQKTDQAPKLLIKYASESISGIPSRFSGSGSGTDFTLTISSVEAEDAADYYCQQINSWPTTFGGGTKLEIKR
notes: Human Gamma-2 / Kappa constant regions
B3: Human Engineered RX1 antibody heRX1-9.G2 (antibody, V domains shown)
VH: B2 VH with Q1D, S25T, G45K, V93T
VL: B2 VL
notes: as for B2
B4: Human Engineered RX1 antibody heRX1-1.G2 (antibody, V domains shown)
VH: B2 VH with Q1D, S25T, G45K, V93T
VL: EIVLTQSPGTLSVSPGERVTFSCRASQSIGTSIHWYQQKTGQSPRLLIKYASERISGIPDRFSGSGSGTDFTLTISRVESEDFADYYCQQINSWPTTFGQGTKLEIKR
B5: Human Engineered RX1 antibody heRX1-5.G2 (antibody, V domains shown)
VH: B2 VH with Q1D, S25T, G45K, V93T
VL: B4 VL with R54S
B6: Human Engineered RX1 antibody heRX1-8.G2 (antibody, V domains shown)
VH: B2 VH
VL: B4 VL with S43A, R54S
B7: Human Engineered RX1 antibody heRX1-3.G2 (antibody, V domains shown)
VH: B2 VH with Q1D, S25T, G45K, V93T
VL: B4 VL with S43A, I55A, S56T
B8: Human Engineered RX1 antibody heRX1-2.G2 (antibody, V domains shown)
VH: B2 VH
VL: B4 VL
B9: Human Engineered RX1 antibody heRX1-4.G2 (antibody, V domains shown)
VH: B2 VH
VL: B4 VL with S43A, I55A, S56T
B10: Human Engineered RX1 antibody heRX1-7.G2 (antibody, V domains shown)
VH: B2 VH with Q1D, S25T, G45K, V93T
VL: B4 VL with S43A, R54S
B11: Human Engineered RX1 antibody heRX1-1.G1 (antibody, V domains shown)
VH: B2 VH with Q1D, S25T, G45K, V93T
VL: B4 VL
B12: Human Engineered RX1 antibody heRX1-1.G4 (antibody, V domains shown)
VH: B2 VH with Q1D, S25T, G45K, V93T
VL: B4 VL
B13: Fab fragment of recombinant murine RX1 (Fab, V domains shown)
VH: B1 VH
VL: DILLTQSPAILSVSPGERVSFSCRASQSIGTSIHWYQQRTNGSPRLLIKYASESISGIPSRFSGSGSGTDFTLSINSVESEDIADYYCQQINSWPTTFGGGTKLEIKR

These binders were tested against T1, human macrophage colony stimulating … (assay: cell-based or functional assay).

Binder | EC50 (M-CSF neutralisation) [µg/mL]
B1 | 0.002

Each binder was assayed against T1, human macrophage colony stimulating … (assay: M-CSF and antibody mixed at equal molar ratios; size exclusion chromatography or light scattering).
Description: The antigen-antibody complexes that the various Human Engineered™ RX1 antibodies formed with MCSF were studied by combining M-CSF and antibody in buffer at equal molar ratios, followed by analysis of the size of the antigen-antibody complex using size exclusion chromatography or light scattering. […] The heRX1-9.G2 or 1-10.G2 antibodies appeared to form 2:1 or 2:2 complexes with MCSF of about 400 kDa. The heRX1-1.G2 appeared to form large lattice aggregates with MCSF of greater than 2×10⁶ Da. The IgG1 and IgG4 constructs formed small complexes similar to that of murine parent RX1.

Binder | size of antigen-antibody complex [kDa]
B2 | ~400
B1 | ~200
B3 | ~400

Molecular target: T1, human macrophage colony stimulating …
Experiment: cell-based or functional assay
Remark: another data set of the same source

Binder | IC50 Fold Loss (M-NFS-60 cell proliferation) [fold]
B4 | 2.8
B2 | 2.2
B3 | 3.6
B5 | 6.5
B6 | 5.9
B7 | 5.3
B8 | 3.1
B9 | 4.6
B10 | 6.1

Molecular target: T1, human macrophage colony stimulating …
Experiment: cell-based or functional assay
Remark: another data set of the same source

Binder | IC50 (read off the curve) [µg/mL]
B4 | ~0.03
B11 | ~0.02
B12 | ~0.02
B1 | ~0.02

Molecular target: T1, human macrophage colony stimulating …
Experiment: cell-based or functional assay
Remark: another data set of the same source

Binder | IC50 (read off the curve) [µg/mL]
B4 | ~0.02
B11 | ~0.01
B12 | ~0.01
B1 | ~0.01

Molecular target: T1, human macrophage colony stimulating …
Experiment: cell-based or functional assay
Remark: another data set of the same source

Binder | IC50 (read off the curve) [µg/mL]
B13 | ~2
B1 | ~0.02
